From patent KR20220059924A (dated 2022)

Tests used:
개 Tie2 단백질 = biological target: T1, 개 Tie2 단백질 (dog, UniProt A0A8I3S0B4 27-1128); experiment: flow cytometry, HEK293T cells transfected with dog Tie2
T1 construct: whole, on cells; also called dog Tie2

랫 Tie2 단백질 = biological target: T2, 랫 Tie2 단백질 (rat, UniProt A0ABK0L6J5 19-1116); experiment: flow cytometry, HEK293T cells transfected with rat Tie2
T2 construct: whole, on cells; also called rat Tie2

마우스 Tie2 단백질 = biological target: T3, 마우스 Tie2 단백질 (mouse, UniProt Q02858 23-1122); experiment: flow cytometry, HEK293T cells transfected with mouse Tie2
T3 construct: whole, on cells; also called mouse Tie2

Measured: binding result

T3 sequence (Q02858 23-1122): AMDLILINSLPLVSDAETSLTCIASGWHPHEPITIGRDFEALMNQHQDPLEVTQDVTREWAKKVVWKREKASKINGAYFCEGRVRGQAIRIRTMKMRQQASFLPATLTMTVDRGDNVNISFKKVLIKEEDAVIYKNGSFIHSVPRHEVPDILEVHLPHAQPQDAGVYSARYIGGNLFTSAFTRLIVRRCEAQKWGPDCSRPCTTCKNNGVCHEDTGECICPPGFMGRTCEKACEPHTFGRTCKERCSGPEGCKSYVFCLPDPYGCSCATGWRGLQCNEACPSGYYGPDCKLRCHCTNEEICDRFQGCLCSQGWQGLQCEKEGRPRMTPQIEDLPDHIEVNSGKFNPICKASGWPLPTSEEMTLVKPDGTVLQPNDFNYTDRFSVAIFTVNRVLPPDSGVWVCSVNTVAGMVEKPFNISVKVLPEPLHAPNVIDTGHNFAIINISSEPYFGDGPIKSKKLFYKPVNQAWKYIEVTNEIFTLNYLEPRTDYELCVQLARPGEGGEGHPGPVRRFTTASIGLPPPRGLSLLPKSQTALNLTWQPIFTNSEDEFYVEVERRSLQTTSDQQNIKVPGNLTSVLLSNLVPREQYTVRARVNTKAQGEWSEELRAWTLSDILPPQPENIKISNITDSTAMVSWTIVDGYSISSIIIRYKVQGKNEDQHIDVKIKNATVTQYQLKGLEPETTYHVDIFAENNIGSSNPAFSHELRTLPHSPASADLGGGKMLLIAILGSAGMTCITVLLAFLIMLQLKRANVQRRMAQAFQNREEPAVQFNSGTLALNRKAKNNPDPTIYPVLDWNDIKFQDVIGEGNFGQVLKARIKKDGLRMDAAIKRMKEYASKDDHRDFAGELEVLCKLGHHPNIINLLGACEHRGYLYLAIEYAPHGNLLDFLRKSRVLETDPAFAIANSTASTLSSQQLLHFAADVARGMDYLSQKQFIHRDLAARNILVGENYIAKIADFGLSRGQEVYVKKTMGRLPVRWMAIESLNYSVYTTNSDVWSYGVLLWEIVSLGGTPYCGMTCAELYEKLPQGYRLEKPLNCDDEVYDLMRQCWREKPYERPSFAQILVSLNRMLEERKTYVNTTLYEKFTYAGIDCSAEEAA

B1: Ang1mab2-1 (antibody, human IgG1, kappa, V domains shown)
VH: QVQLVESGGGVVQPGRSLRLSCAASGFTFSSYAMHWVRQAPGKGLEWVAVISYDGSNKYYADSVKGRFTISRDNSKNTLYLQMNSLRAEDTAVYYCARQYSGVFEYWGQGTLITVSS
VL: DIQMTQSPDSLAVSLGERATINCKSSQSVLYRSNNRNYLAWYQQKLGQPPQLLIYWASTRESGVPDRFSGSGSGADFTLTISSLQAEDVAVYYCQQYFSIPYTFGQGTKLEIKR
notes: also called 제2 기본 항체
no binding (tested: 5ug/ml): all assays above
